Experimental data reported in patent US20220162261A1 (published 2022).
Where two headings read alike, the source gives them in different places. Numbered stars: 1 amine (or outer) side, 2 acyl side, 3 side chain; on linkers, the order of the positions; unused ones are H or OH. Bridge positions count the residues as written; N and C are the ends. Square brackets hold non-standard residues; d marks the D form. Asp(OMe) = L-aspartic acid beta-methyl ester, COC(=O)C[C@H](N[*:1])C(=O)[*:2]; Phe(3,4-Cl2) = N[C@@H](Cc1ccc(Cl)c(Cl)c1)C(=O)O; Phe(4-tBu) = CC(C)(C)c1ccc(C[C@H](N)C(=O)O)cc1; Phe(2,4-Cl2) = N[C@@H](Cc1ccc(Cl)cc1Cl)C(=O)O; NMeR = CN[C@@H](CCCNC(=N)N)C(=O)O; hPhe = N[C@@H](CCc1ccccc1)C(=O)O; β3hE = N[C@@H](CCC(=O)O)CC(=O)O; Pen = CC(C)(S)[C@H](N)C(=O)O; βAla = NCCC(=O)O

Assays:
[1] = target: T1, rh integrin α4β7 (R&D Systems #5397-A30) (human, UniProt P13612 34-970; P26010 20-723); experiment: competition ELISA vs MAdCAM-1
T1 construct: bought; coated on a nickel coated plate; also called immobilized α4β7; immobilized α4β7 integrin protein

[2] = target: T2, human α4β1 integrin on cells (human, UniProt P13612 34-1032; P05556 21-798); experiment: Jurkat cell adhesion to VCAM-1
T2 construct: whole, on cells; also called α4β1 cell; Jurkat cells

[3] = target: T3, human α4β7 integrin on cells (human, UniProt P13612 34-1032; P26010 20-798); experiment: RPMI8866 cell adhesion to MAdCAM-1
T3 construct: whole, on cells; also called α4β7 cell (Hu); RPMI8866 cells

[4] = target: T4, α4β1 (R&D Systems #5668-A4) (UniProt P13612 34-970; P05556 21-728, limits assumed); experiment: competition ELISA vs VCAM-1
T4 construct: bought; also called soluble α4β1

[5] = target: T1, rh integrin α4β7 (R&D Systems #5397-A30); experiment: competition ELISA vs MAdCAM-1; remark: listed apart in the source
[6] = target: T3, human α4β7 integrin on cells; experiment: RPMI8866 cell adhesion to MAdCAM-1; remark: listed apart in the source

IC50 [1] [nM]	IC50 [2] [nM]	IC50 [3] [nM]	IC50 [4] [nM]	IC50 [5] [nM]	IC50 [6] [nM]	Binder
3	> 100000	96	16700	–	–	Ac-C[NMeR]SDTLCK-OH (disulfide 1-7 (inferred); also: dimer linked by PEG25, attachment not given here, also called peptide 200) [SEQ ID NO: 200]
–	–	–	–	> 10	–	H-[βAla][Pen][NMeR]SDTL[Pen]W[dE]-NH2 (disulfide 2-8; SMILES CC(C)C[C@@H]1NC(=O)[C@H]([C@@H](C)O)NC(=O)[C@H](CC(=O)O)NC(=O)[C@H](CO)NC(=O)[C@H](CCCNC(=N)N)N(C)C(=O)[C@@H](NC(=O)CCN)C(C)(C)SSC(C)(C)[C@@H](C(=O)N[C@@H](Cc2c[nH]c3ccccc23)C(=O)N[C@H](CCC(=O)O)C(N)=O)NC1=O) [SEQ ID NO: 53]
97	–	590	2020	–	–	Ac-CRSDTLCGE-NH2 (disulfide 1-7 (inferred), also called peptide 194) [SEQ ID NO: 194]
–	–	–	–	≤ 10	–	Ac-[Pen][NMeR]SDTL[Pen][hPhe][dE][dK]-NH2 (disulfide 1-7; not fully specified (residue 10); printed as (Ac Pen N-Me-R S D T L Pen HPhe e k NH2)2 DIG, disulfide Pen-Pen; also: dimer, two subunits joined by DIG linker) [SEQ ID NO: 40]
87	> 100000	6660	4810	–	–	Ac-CRSDTLCGEK-NH2 (disulfide 1-7 (inferred), also called peptide 196) [SEQ ID NO: 196]
–	–	–	–	> 10	–	Ac-[Pen][NMeR]SDTL[Pen]WEP[dK]-NH2 (disulfide 1-7; SMILES CC(=O)N[C@@H]1C(=O)N(C)[C@@H](CCCNC(=N)N)C(=O)N[C@@H](CO)C(=O)N[C@@H](CC(=O)O)C(=O)N[C@@H]([C@@H](C)O)C(=O)N[C@@H](CC(C)C)C(=O)N[C@H](C(=O)N[C@@H](Cc2c[nH]c3ccccc23)C(=O)N[C@@H](CCC(=O)O)C(=O)N2CCC[C@H]2C(=O)N[C@H](CCCCN)C(N)=O)C(C)(C)SSC1(C)C) [SEQ ID NO: 49]
36	> 100000	301	964	–	–	Ac-CRSDTLCGEK-NH2 (disulfide 1-7 (inferred); also: dimer linked by PEG25, attachment not given here, also called peptide 197) [SEQ ID NO: 197]
97	–	1220	2880	–	–	Ac-CRSDTLC-NH2 (disulfide 1-7 (inferred), also called peptide 195) [SEQ ID NO: 195]
–	–	–	–	≤ 10	> 10	Ac-[Pen][NMeR]SDTL[Pen][Phe(3,4-Cl2)]E[dK]-NH2 (disulfide 1-7; not fully specified (residue 10); printed as (Ac Pen N-Me-R S D T L Pen F(3,4-diCl) E k NH2)2 DIG, disulfide Pen-Pen; also: dimer, two subunits joined by DIG linker) [SEQ ID NO: 43]
87	> 100000	11000	1620	–	–	Ac-C[NMeR]SDTL[Pen][dK]-NH2 (disulfide 1-7; SMILES CC(=O)N[C@H]1CSSC(C)(C)[C@@H](C(=O)N[C@H](CCCCN)C(N)=O)NC(=O)[C@H](CC(C)C)NC(=O)[C@H]([C@@H](C)O)NC(=O)[C@H](CC(=O)O)NC(=O)[C@H](CO)NC(=O)[C@H](CCCNC(=N)N)N(C)C1=O) [SEQ ID NO: 202]
1	–	28	1240	–	–	Ac-C[NMeR]SDTLCGEK-OH (disulfide 1-7 (inferred); also: dimer linked by DIG, attachment not given here, also called peptide 201) [SEQ ID NO: 201]
30.5	–	412	–	–	–	XRSDTLXWK (Ac Pen N-Me-R S D T L Pen W k NH2; disulfide Pen-Pen, also called peptide 208) [SEQ ID NO: 208]
–	–	–	–	504	> 10000	XRSDTLXWE (Cyclo [Pen N-Me-R S D T L Pen W e]; disulfide Pen-Pen) [SEQ ID NO: 145]
20	> 100000	1120	1290	–	–	Ac-C[NMeR]SDTLCGE-NH2 (disulfide 1-7 (inferred), also called peptide 198) [SEQ ID NO: 198]
97	–	–	–	–	–	Ac-[Pen]RSDTLC[dK]-NH2 (disulfide 1-7; SMILES CC(=O)N[C@@H]1C(=O)N[C@@H](CCCNC(=N)N)C(=O)N[C@@H](CO)C(=O)N[C@@H](CC(=O)O)C(=O)N[C@@H]([C@@H](C)O)C(=O)N[C@@H](CC(C)C)C(=O)N[C@H](C(=O)N[C@H](CCCCN)C(N)=O)CSSC1(C)C, also called peptide 206) [SEQ ID NO: 206]
–	–	–	–	364	> 10000	cyclo([Pen][NMeR]SDTL[Pen]WE) (disulfide 1-7; SMILES CC(C)C[C@@H]1NC(=O)[C@H]([C@@H](C)O)NC(=O)[C@H](CC(=O)O)NC(=O)[C@H](CO)NC(=O)[C@H](CCCNC(=N)N)N(C)C(=O)[C@H]2NC(=O)[C@H](CCC(=O)O)NC(=O)[C@H](Cc3c[nH]c4ccccc34)NC(=O)[C@@H](NC1=O)C(C)(C)SSC2(C)C) [SEQ ID NO: 144]
58	–	4690	> 100000	–	–	Ac-C[NMeR]SDTLCGEK-OH (disulfide 1-7 (inferred), also called peptide 199) [SEQ ID NO: 199]
–	–	–	–	≤ 10	≤ 10	Ac-[Pen][NMeR]SDTL[Pen][Phe(2,4-Cl2)]E[dK]-NH2 (disulfide 1-7; not fully specified (residue 10); printed as (Ac Pen N-Me-R S D T L Pen F(2,4-diCl) E k NH2)2 DIG, disulfide Pen-Pen; also: dimer, two subunits joined by DIG linker) [SEQ ID NO: 42]
–	–	–	–	≤ 10	–	Ac-[Pen][NMeR]SDTL[Pen][Phe(4-tBu)][β3hE][dK]-NH2 (disulfide 1-7; not fully specified (residue 10); printed as (Ac Pen N-Me-R S D T L Pen F(4-Bu) b-H-E k NH2)2 IDA Alexa-647, disulfide Pen-Pen; also: homodimer: two subunits joined by IDA linker, Alexa-647 label on the linker, F(4-Bu) as printed) [SEQ ID NO: 183]
2.4	–	26	444	–	–	Ac-C[NMeR]SDTL[Pen]E[dK]-NH2 (disulfide 1-7; also: homodimer via DIG linker on D-Lys9 side chains, also called peptide 205) [SEQ ID NO: 205]
–	–	–	–	> 10	> 100	Ac-[Pen][NMeR]S[Asp(OMe)]TL[Pen]WE[dK]-NH2 (disulfide 1-7; also: Biotine, site of attachment not given here) [SEQ ID NO: 69]
–	–	–	–	≤ 10	≤ 10	Ac-[Pen][NMeR]S[Asp(OMe)]TL[Pen]WE[dK]-NH2 (disulfide 1-7; not fully specified (residue 10); printed as (Ac Pen N-Me-R S D(OMe) T L Pen W E k NH2)2 DIG, disulfide Pen-Pen; also: homodimer: two subunits linked by DIG via D-Lys10 side chain) [SEQ ID NO: 73]
26	–	49	–	–	–	Ac-[Pen]RSDTLC[dK]-NH2 (disulfide 1-7; also: homodimer via DIG linker on D-Lys8 side chains, also called peptide 207) [SEQ ID NO: 207]
–	–	–	–	> 10	> 50	Ac-[Pen][NMeR]SDTL[Pen][Phe(4-tBu)]-OH (disulfide 1-7; SMILES CC(=O)N[C@@H]1C(=O)N(C)[C@@H](CCCNC(=N)N)C(=O)N[C@@H](CO)C(=O)N[C@@H](CC(=O)O)C(=O)N[C@@H]([C@@H](C)O)C(=O)N[C@@H](CC(C)C)C(=O)N[C@H](C(=O)N[C@@H](Cc2ccc(C(C)(C)C)cc2)C(=O)O)C(C)(C)SSC1(C)C) [SEQ ID NO: 151]
–	–	–	–	> 10	> 100	H-[βAla][Pen][NMeR]SDTL[Pen]WE-NH2 (disulfide 2-8; SMILES CC(C)C[C@@H]1NC(=O)[C@H]([C@@H](C)O)NC(=O)[C@H](CC(=O)O)NC(=O)[C@H](CO)NC(=O)[C@H](CCCNC(=N)N)N(C)C(=O)[C@@H](NC(=O)CCN)C(C)(C)SSC(C)(C)[C@@H](C(=O)N[C@@H](Cc2c[nH]c3ccccc23)C(=O)N[C@@H](CCC(=O)O)C(N)=O)NC1=O) [SEQ ID NO: 52]
